{"source": "the nanobody polyreactivity screen of Harvey et al. (2022)"}
{"test": "yeast display, Sf9 membrane polyspecificity reagent, FACS + sequencing; frameworks hold sequencing errors", "method_in_brief": "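Nanobodies came from a synthetic yeast display library in Saccharomyces cerevisiae BJ5465, induced with galactose for 36–48 hours and stained for 1 hour at 4 °C with 10% biotinylated, detergent-solubilized Sf9 membrane reagent. Cells were enriched on streptavidin microbeads and then FACS-sorted, with low and high (top ~1%) gates set on anti-HA fluorescence for expression and streptavidin fluorescence for reagent binding. Each polyreactivity label reflects the gate a clone came from. Genes were amplified by colony PCR, sequenced by MiSeq 2 × 250 and filtered by CDR length.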"}
{"sequence": "QVQLVESGGGLVQAGGSLRLSCAASGRIFGYNTMGWYRQPPGKERELVAAITSTGRTYYADSVKGRFTISRDNAKNTVYLQMNSLKPEDTAVYYCNARSSYGWPKYYYWGQGTQVTVSS", "polyreactivity (PSR sort gate)": "high polyreactivity"}
{"sequence": "QVQLVESGGGLVQAGGSLRLSCAASGRIFGYYAMGWYRPAPGKERELVAGISARGGSTYYADSVKGRFTISRDNAKNTVYLQMNSLKPEDTAVYYCNKTRHDWFRTDSIRESAEYDYWGQGTQVTVSS", "polyreactivity (PSR sort gate)": "low polyreactivity"}
{"sequence": "QVQLVESGGGLVQAGGSLRLSCAASGRIFGYYAMGWYRQAPGKERELVAAIRSSGGSTYYADSVKGRFTISRDNAKNTVYLQMNSLKPEDTAVYYCNKGAAWRPFFGPYYNYEYWGQGTQVTVSS", "polyreactivity (PSR sort gate)": "high polyreactivity"}
{"sequence": "QVQLVESGGGLVQAGGSLRLSCAASGRIFGYYAMGWYRQAPGKERELVAAISSSGGSTYYADSVKGRFTISRDNAKNTVYLQMNSLKPEDTAVYYCAAGGPRVNGYGRAYDYWGQGTQVTVSS", "polyreactivity (PSR sort gate)": "high polyreactivity"}
{"sequence": "QVQLVESGGGLVQAGGSLRLSCAASGRIFGYYAMGWYRQAPGKERELVAAISWTGASTYYADSVKGRFTISRDNAKNTVYLQMNSLKPEDTAVYYCAVDRGLDYYWGQGTQVTVSS", "polyreactivity (PSR sort gate)": "high polyreactivity"}
{"sequence": "QVQLVESGGGLVQAGGSLRLSCAASGRIFGYYAMGWYRQAPGQERELVAAITRNGGSTYYADSVKGRFTISRDNAKNTVYLQMTSLKPEDTAVYYCAATKGGGRGYWGQGTQVTVSS", "polyreactivity (PSR sort gate)": "high polyreactivity"}
{"sequence": "QVQLVESGGGLVQAGGSLRLSCAASGRIFGYYGMGWYRQAPGKERELVAGITSSGGSTYYADSVKGRFTISRDNAKNTVYLQMNSLKPEDTAVYYCNVRRYGSRFDYWGQGTQVTVSS", "polyreactivity (PSR sort gate)": "high polyreactivity"}
{"sequence": "QVQLVESGGGLVQAGGSLRLSCAASGRIFGYYTMGWYRQAPGKERELVAAINGRGTSTYYADSVKGRFTISRDNAKNTVYLQMNSLKPEDTAVYYCAARYTRTVGYDYWGQGTQVTVSS", "polyreactivity (PSR sort gate)": "high polyreactivity"}
{"sequence": "QVQLVESGGGLVQAGGSLRLSCAASGRIFGYYVMGWYRQAPGKERELVATISSGGSTYYADSVKGRFTISRDNAKNTVYLQMNSLKPEDTAVYYCNTDRYHRVDFEYWGQGTQVTVSS", "polyreactivity (PSR sort gate)": "high polyreactivity"}
{"sequence": "QVQLVESGGGLVQAGGSLRLSCAASGRIFHGYAMGWYRQAPGKERELVATIRSGGGTYYADSVKGRFTISRDNAKNSVYLQINSLKPDDTAVYYCNAQSSYSYFSGYDYWGQGSQVTVSS", "polyreactivity (PSR sort gate)": "low polyreactivity"}
{"sequence": "QVQLVESGGGLVQAGGSLRLSCAASGRIFHHNAMGWYRQAPGKERELVATITKSGGSTYADSVKGRFTISRDNAKNTVYLQMNSLKPEDTAVYYCDADVTNRGTWVIYGYYYWGQGTQVTVSS", "polyreactivity (PSR sort gate)": "low polyreactivity"}
{"sequence": "QVQLVESGGGLVQAGGSLRLSCAASGRIFHIYAMGWYRPAPGKERELVAAIRSSGGSTYYADSVKGRFTISRDNAMNTVYLQMNSLKPEDTAVYYCNKYVAYDYWGQGTQVTVSS", "polyreactivity (PSR sort gate)": "low polyreactivity"}
{"sequence": "QVQLVESGGGLVQAGGSLRLSCAASGRIFHLYAMGWYRQAPGKERELVAAITFSGGSTYYADSVKGRFTISRDNAKNTVYLQMNSLKPEDTAVYYCAKRSFYLFSSRLPFKYDYGGQGTQVTVSS", "polyreactivity (PSR sort gate)": "low polyreactivity"}
{"sequence": "QVQLVESGGGLVQAGGSLRLSCAASGRIFHPNVMGWYRQAPGKERELVAAISSGGSTYYADSVKGRFTISRDNAKNTVYLQMNSLKPEDTAVYYCATRIRSGSYPYPRYDYWGQGTQVTVSS", "polyreactivity (PSR sort gate)": "high polyreactivity"}
{"sequence": "QVQLVESGGGLVQAGGSLRLSCAASGRIFHQNTMGWYRQAPGKERELVAAISATGGGTNYADSVKGRFTISRDNAKNTVYLQMNSLKPEDTAVYYCAVRPKTSWYSWYYWGQGTQVTVSS", "polyreactivity (PSR sort gate)": "low polyreactivity"}
{"sequence": "QVQLVESGGGLVQAGGSLRLSCAASGRIFHRNAMGWYRQAPGKERELVARITRSGTSTYYADSVKGRFTISRDNAKNTVYLQMNSLKQEDTAVYYCAADNASPSLGEYNYWGQGTQVTVSS", "polyreactivity (PSR sort gate)": "low polyreactivity"}
{"sequence": "QVQLVESGGGLVQAGGSLRLSCAASGRIFHRNAMGWYRQAPGQERELVARITRSGTSTYYADSVKGRFTISRDNAKNTVYLQMNSLKPEDTAVYYCAADNASPSLGEYNYWGQGTQVTVSS", "polyreactivity (PSR sort gate)": "low polyreactivity"}
{"sequence": "QVQLVESGGGLVQAGGSLRLSCAASGRIFHSNAMGWYRQAPGKESELVADINRDGSTNYADSVKGRFTISRDNAKNTVYLQMNSLKPEDTAVYYCAKPYYSWPRYNHFEYWGQGTQVTVSS", "polyreactivity (PSR sort gate)": "low polyreactivity"}
{"sequence": "QVQLVESGGGLVQAGGSLRLSCAASGRIFHWYAMGWYRQAPGKERELVAAIRWTGGSTYYADSVKGRFTISRDNAKNTVYLQMNSLKPEDTAVYYCAAKGYTGIFYEMDYWGQGTQVTVSS", "polyreactivity (PSR sort gate)": "low polyreactivity"}
{"sequence": "QVQLVESGGGLVQAGGSLRLSCAASGRIFHWYTMGWYRQAPGKERELVATITDGGSTYYADSVKGRFTISRDNAKNTVYLQMNSLKPEDTAVYYCAARKIGTRRLRYPYYIFGYWGQGTQVTVSS", "polyreactivity (PSR sort gate)": "high polyreactivity"}
{"sequence": "QVQLVESGGGLVQAGGSLRLSCAASGRIFHYNAMGWYRQAPGKEREFVASISGSGGRTYYADSVKGRFTISRDNAKNTVYLQMNSLKPEDTAVYYCAASYYGHRYWGQGTQVTVSS", "polyreactivity (PSR sort gate)": "low polyreactivity"}
{"sequence": "QVQLVESGGGLVQAGGSLRLSCAASGRIFHYYAMGWYRQAPGKERELVAAINKSGGRTYYADSVKGRFTISRDNAKNTVYLQMNSLKPEDTAVYYCAADVPGVTTSYAPYDSDYWGQGTQVTVSS", "polyreactivity (PSR sort gate)": "high polyreactivity"}
{"sequence": "QVQLVESGGGLVQAGGSLRLSCAASGRIFHYYAMGWYRQAPGKERELVAAISNTDGSTYYADSVKGRFTISRDNAKYTVYLQMNSLKPEDTAVYYCAADSLGALYRGNYPYGYWGQGTQVNVSS", "polyreactivity (PSR sort gate)": "high polyreactivity"}
{"sequence": "QVQLVESGGGLVQAGGSLRLSCAASGRIFHYYAMGWYRQAPGKERELVAASTFRGGNTYADSVKGRFTISRDNAKNTVYLQMNSLKPEDTAVYYCADSRLSGYYSRYGYWGQGTQVTVSS", "polyreactivity (PSR sort gate)": "high polyreactivity"}
{"sequence": "QVQLVESGGGLVQAGGSLRLSCAASGRIFHYYAMGWYRQAPGKERELVAGITSGGSTYYADSVKGRFTISRDNAKNTVYLQMNSLKPEDTAVYYCATTRYGGSRRYRPYDRERDYWGLGTQVTVSS", "polyreactivity (PSR sort gate)": "low polyreactivity"}
{"sequence": "QVQLVESGGGLVQAGGSLRLSCAASGRIFIEYAMGWYRQAPGKERELVATINSSGGRTYYADSVKGRFTISRDNAKNTVYLQMHSLKPEDTAVYYCNADVGLLYTETYEYDYWGQGTQVTVSS", "polyreactivity (PSR sort gate)": "low polyreactivity"}
{"sequence": "QVQLVESGGGLVQAGGSLRLSCAASGRIFIFNAMGWYRQAPGKERELVAAISTRGGSTRYADSVKGRFTISRDNAKNTVYLQMNSLKPEDTAVYYCAAVYLYYAYAFDYWGQGTQVTVSS", "polyreactivity (PSR sort gate)": "high polyreactivity"}
{"sequence": "QVQLVESGGGLVQAGGSLRLSCAASGRIFIGNAMGWSRQAPGKERELVAAISSSGGSTYYADSVKGRFTISRDNAKNTVYLQMNSLKPEDTAVYYCAAETKNAPRFYPYSNEGYYYWGHGTQVTVSS", "polyreactivity (PSR sort gate)": "low polyreactivity"}
{"sequence": "QVQLVESGGGLVQAGGSLRLSCAASGRIFIGNAMGWYRQAPGKERELVADISYSGGTTYYADSVKGRFTISRDNAKNTVYLQMNSLKPEDTAVYYCNKYDPRPVWQGWVWIEYYYWGQGTQVTVSS", "polyreactivity (PSR sort gate)": "low polyreactivity"}
{"sequence": "QVQLVESGGGLVQAGGSLRLSCAASGRIFIHNAMGWYRQAPGKERELVAAISSRGSRTSYADSVKGRFTISRDNAKNTVYLQMNSLKPEDTSVYYCNAAPIAKYDYWGQGTQVTVSS", "polyreactivity (PSR sort gate)": "high polyreactivity"}
{"sequence": "QVQLVESGGGLVQAGGSLRLSCAASGRIFIHYAMGGYRHAPGKERELVAAISASGGTTNYADSVKGRFTISRDNAKNTVYLQMNSLKPEDTAVYYCNKDYPQNPLPASSYYLGRFDYWGQGSQVTVSS", "polyreactivity (PSR sort gate)": "high polyreactivity"}
{"sequence": "QVQLVESGGGLVQAGGSLRLSCAASGRIFIPYAMGWYIQAPGKERELVAAISSSGGSTYYADSVKGRFTISRDTAKNTVYLQMNSLKPEDTEVYFCAARLYWGYAYENYSSLFEYDYWGQGTQVTVSS", "polyreactivity (PSR sort gate)": "low polyreactivity"}
{"sequence": "QVQLVESGGGLVQAGGSLRLSCAASGRIFIRAMGWYRQAPGKERELVAGITNGGITYYADSVKGRFTISRDNAKNTVYLQMISLKPEDTAVYFCNDRSSSVDYNYDYWGQGTQVTVSS", "polyreactivity (PSR sort gate)": "low polyreactivity"}
{"sequence": "QVQLVESGGGLVQAGGSLRLSCAASGRIFITNAMGWYRPAPGKERELVAVISYIGGRTYYADSVKGRFTISRDNAKNTVYLQMNSLKPEDTAVYYCAARRSRPTYFSTGVNYWGQGTQVTVSS", "polyreactivity (PSR sort gate)": "high polyreactivity"}
{"sequence": "QVQLVESGGGLVQAGGSLRLSCAASGRIFITYAMGWYRPAPGTERELVAAIDSRGGSTYYADSVKGRFTISRDNAKNTDYLQMNSLKPEDTSVNYCAAEFYYIWLYEYWGQGTQVTVSS", "polyreactivity (PSR sort gate)": "high polyreactivity"}
{"sequence": "QVQLVESGGGLVQAGGSLRLSCAASGRIFIYYAMGWYRQAPGKERELVAAISWGGGRTYYADSVKGRFTLSRYNAKNTVYLQMNSLKPEDTAVYYCAAGVYTGQNEYDYWGQGTQVTVSS", "polyreactivity (PSR sort gate)": "low polyreactivity"}
{"sequence": "QVQLVESGGGLVQAGGSLRLSCAASGRIFIYYTMGWYRPAPGKERELVASITWSGGRTYYADSVKGRFTISRDNAKNTVYLQMNSLKPEDNAVYYCNAGYSIGLVAYGYWGQGTQVTVSS", "polyreactivity (PSR sort gate)": "low polyreactivity"}
{"sequence": "QVQLVESGGGLVQAGGSLRLSCAASGRIFKAYAMGWYRQAPGKERELVAAITSTGSTYYADSVKGRFTISRDNAKNTVYLQMNSLKPEDTAVYSCARRPSYYQGDYWGQGTQVTVSS", "polyreactivity (PSR sort gate)": "high polyreactivity"}
{"sequence": "QVQLVESGGGLVQAGGSLRLSCAASGRIFKDHAMGWYRQAPGKERELVAGITSIGDNTYYADSVKGRFTISRDNAKNTVYLQMNSLKPEHTAVYYCNADYGYDSVVEYDYWGQGTQVTVSS", "polyreactivity (PSR sort gate)": "low polyreactivity"}
{"sequence": "QVQLVESGGGLVQAGGSLRLSCAASGRIFKFYAMGWYRQAPGKERELVAAISRTGGNTYYADSVKGRFTISRDNAKNTVYLQMNSLKPEDTAVYYCAAETYARSSSSKYEYWGQGTQVTVSS", "polyreactivity (PSR sort gate)": "high polyreactivity"}
